Results from article PMC6350010.

Target: Wild-type Aβ (1–40) peptide
Assay: single-molecule fluorescence burst analysis

Atto655-Aβ40 (peptide)
mean of the oligomer size distribution, μ1 (relative photon number N phot,rel): 7.4 N¯phot,mon
